These results are taken from publication PMC3549482.

Where two headings read alike, the source gives them in different places.

Test [1] has as its target CD81 on 293-T cells (human (endogenous in HEK 293-T)) (UniProt P60033). As to the kind of experiment: flow cytometry on cells. On the technique in general: A flow cytometer gives signals particle by particle.
The target is the same in test [2]. As to the kind of experiment: flow cytometry on cells. The source holds these as a separate data set.

Chain of UniProt P60033 (P60033 whole entry): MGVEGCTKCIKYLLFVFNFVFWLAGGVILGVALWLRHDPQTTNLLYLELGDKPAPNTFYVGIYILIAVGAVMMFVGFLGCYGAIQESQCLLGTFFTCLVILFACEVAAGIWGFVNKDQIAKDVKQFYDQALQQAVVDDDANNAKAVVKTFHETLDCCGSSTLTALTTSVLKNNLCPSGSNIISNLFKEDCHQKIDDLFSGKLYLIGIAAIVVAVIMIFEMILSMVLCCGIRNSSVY

As for “HCV E2 (strain not told for the experiment on 293-T cells) (natural protein)”, the Mean FI amounted to 62 in test [1] and 79 in test [2].
